From the DeepSol protein solubility set

Test: soluble on expression in E. coli; label from the status in PepcDB or PDB records

Sequence | soluble on expression in E. coli
MSERHGVQEATLRNWANLGYITSCRMGNQLFLDDESLTAYLEAHKRLGLQADYLAKIVEEKKLERDFIISRYDDLLYVLRTQKTCKPLYEIIIRELSQLIVHPGARDIFYSISMGESIEKVAGRHRITYDRALQIYNSHLRGLKVRKNVLATYRKHIIDARFQSLADKSKNINLNQEERVLQLSVGKVADTRLTNVLYKEEIRTVGQLLELVSGKGWRWLLKMEGVGRISYDRLLSNLQLAGVVDESLEQILSGRSDR | not soluble
MSERLYYFVIVGRDDRVLYDLLYPASLSELDWRTSSELSSPAERGDFEPHHFIPSIQVLLQFVAYSALDHIEEKYWLTSARSLKHIFRFRDWSASVQLTPNAATRFVLVHGASDDASRNVRAFLHAVYEAYVPHVVCNPFQEEDAPITSKRFHEVAKNLAKRYFSG | not soluble
MSESFAQLFEESLKVLETRQGSIVSGTVVAIQKGFVLVDAGLKSESAIPVAEFLNAQGELEIQVGDTVNVALDAVEDGFGETKLSREKAVRHESWIELEKAYEEKATVIGLIGKVKGGFTVELNGVRAFLPGSLVDTRPAREADHLLGKELEFKVIKLDQKRNNVVVSRRAVIESENSQEREQVLENLVEGSEVKGVVKNLTEYGAFVDLGGVDGLLHITDMAWKRVKHPSEIVNVGDEVTVKVLKFDKDRTRVSLGLKQLGQDPWAAIAENHPVNSKLTGKVTNLTDYGCFVEILDGVEGLVHVSEMDWTNKNIHPSKVVSLGDTVEVMVLEIDEERRRISLGLKQCKANPWTQFADTHNKGDKVTGKIKSITDFGIFIGLEGGIDGLVHLSDISWSISGEEAVRQYKKGDEVSAVVLAVDAVKERISLGIKQLEEDPFNNFVAINKKGAVVSATVVEADAKGAKVELAGGVEGYIRSADLTSEVAVGDVVEAKYTGVDRKSRIVHLSVKAKDQAEEAAAVASVNNKQEDIVIPNAMAEAFKAAKGELEHHHHHH | not soluble
MSESTSSVGPGRPKDPAKREAILEAAKRLFLCNGYDGSSMEAIASEAGVSKLTVYSHFTDKETLFSEAVKAKCAEQLPALYFQLAEGAPLEKVLLNIARGFHRLINSHEAIALTRLMAAQAGQNPKLSELFFEAGPKQVIDEMERLLEQARRSGKLAFPDARHAAEHFFMLVKGCANYRLLIGCAEPLDEAEGERHVEEVVALFLRAFAAGG | not soluble
MSETKNDIAWERIFKKYRILEKIKKNGAFEITSGQINEFREARLMTKFDHRKNLPKIFEENNFSILPITRGSYLIAQFKAYHRLEEKETEIIKIPFPTYIESIDYENITSEAAALNCAYVSGILADFIEDEEMVPTVTGRMSSDAFCFYINTYSGSKFKVNVTNAQIEIDGGYEGLGTFSLIEAKNSLSDDFIIRQIYYPYRLWHDKINKKVKPIFMTYSNGIFTFYEYEFQDPEDYNSLTLVKQKKYSIEETEIGLDDIIEIYKRTKIINEPEVPFPQADSFERIINLCELLNESELTRDEITTNYDFDSRQTNYYTDAARYLGLVHKRKEGREVIFSLTEEGEKLFKLKYKPRQLKFVELILSHKVFREVFELCLKNGKMPDKHEVVKIMRYSNLYKIESEKTFYRRAQTIMSWIKWILELTRL | not soluble
MSETPAQCSIKQERISYTPPESPVPSYASSTPLHVPVPRALRMEEDSIRLPAHLRLQPIYWSRDDVAQWLKWAENEFSLRPIDSNTFEMNGKALLLLTKEDFRYRSPHSGDVLYELLQHILKQRKPRILFSPFFHPGNSIHTQPEVILHQNHEEDNCVQRTPRPSVDNVHHNPPTIELLHRSRSPITTNHRPSPDPEQRPLRSPLDNMIRRLSPAERAQGPRPHQENNHQESYPLSVSPMENNHCPASSESHPKPSSPRQESTRVIQLMPSPIMHPLILNPRHSVDFKQSRLSEDGLHREGKPINLSHREDLAYMNHIMVSVSPPEEHAMPIGRIADCRLLWDYVYQLLSDSRYENFIRWEDKESKIFRIVDPNGLARLWGNHKNRTNMTYEKMSRALRHYYKLNIIRKEPGQRLLFRFMKTPDEIMSGRTDRLEHLESQELDEQIYQEDEC | soluble
MSEVLITGLRTRAVNVPLAYPVHTAVGTVGTAPLVLIDLATSAGVVGHSYLFAYTPVALKSLKQLLDDMAAMIVNEPLAPVSLEAMLAKRFCLAGYTGLIRMAAAGIDMAAWDALGKVHETPLVKLLGANARPVQAYDSHSLDGVKLATERAVTAAELGFRAVKTRIGYPALDQDLAVVRSIRQAVGDDFGIMVDYNQSLDVPAAIKRSQALQQEGVTWIEEPTLQHDYEGHQRIQSKLNVPVQMGENWLGPEEMFKALSIGACRLAMPDAMKIGGVTGWIRASALAQQFGIPMSSHLFQEISAHLLAATPTAHWLERLDLAGSVIEPTLTFEGGNAVIPDLPGVGIIWREKEIGKYLV | soluble
MSEVPHFVLYEHAAGYALMKIKEFDDAGLILQEVDAAHADGYKFSQIVELASFDPFKNTEAALENCNSISEGLAHPDLTNFLQKSLPKKKKHVVLGINDSKLAGSLTEAFPDLKLVFGGVITEILRGTRVHFERLAKNLPHHSLSKAQLSLGHSYSRSKVKFDVHRVDNMVIQSIALLDQLDKDINLFGMRIREWYSYHYPELFRLAPDQYKYSRLAVAILDRNKMAENENLENEILEILDNDSEKTAQIIEAARTSMGMDISDLDLENIKRFAARVSSLMEYRQQLHEYIKDRMDHCAPSLSALIGEQVGARLISHAGSLTNLAKYPASTVQILGAEKALFRALKTRSNTPKYGLLFHSSFIGKAGTKNKGRVSRYLANKCSIAARVDCFSETPVSTYGEFLRQQVEDRLEYFTSGTVPKKNIDVMKEAEEAAVEVKEKVIKKKKKAAKKAKRLAEESVTATAEAEVDEDAPKPKKKKKSKAGDE | not soluble
MSFASGCTPVSFDKLFEVSSGDKVSRENWGMIARPEPQHDSLKRRNTTSSIAKKKAKMTRGDEQITDETARKAATQLLDQIQDTPGRISLNFETPEAASVCPIPTSLNQIVNTKWTVNQLQEGQLTMLLAQDANKFKSLGVKNIKKGSVETQILPRQMDVKEIVEKLKKQDNDSDQFVGYAAAVANVLRRCDAETAQKITQAITATIEKEAPSIVNC | not soluble
MSFDPLPGTLENLLEQTSLKWIFVGGKGGVGKTTTSCSLAIQMSKVRSSVLLISTDPAHNLSDAFGTKFGKDARKVPGFDNLSAMEIDPNLSIQEMTEQADQQNPNNPLSGMMQDLAFTIPGIDEALAFAEILKQIKSMEFDCVIFDTAPTGHTLRFLNFPTVLEKALGKLGGLSSRFGPMINQMGSIMGVNANEQDLFGKMESMRANISEVNKQFKNPDLTTFVCVCISEFLSLYETERMIQELTSYEIDTHNIVVNQLLLDPNTTCPQCMARRKMQQKYLAQIEELYEDFHVVKVPQVPAEVRGTEALKSFSEMLVKPYVYPTSGKE | soluble
MSFKVKNQSKHLYSLMTKFKRSQLILKHQSNNFASELWNEEDIIRSKQFIELIEDTLLHLKKDTVDFIYDIFIYGKKPCDISYSNSTYYKKLNKAANSFFDHFVWEAPIYKTKELKNDNSHS | soluble
MSFTDEKIRLNIGGTIFETSKSTLTKFDGFFKTLLETDIPIQKDDSNCIFIDRSPRHFEKILNYLRDGADVDLLPESEKEVREILKEAQFYLLEGLMELCKRSSCKIRTFESYHHLLKLIAEAGKPVLVMFYLVKDNRIVHVPNNFEFLDFLEKHQGKLDIYFKESPYETTHQNPSQFLPPGREEAAPSWTYCFYNTPKLPFRFTISFVEKLEEDIEFVLGNLNK | not soluble
MSFTVIIPARFASSRLPGKPLADIKGKPMIQHVFEKALQSGASRVIIATDNENVADVAKSFGAEVCMTSVNHNSGTERLAEVVEKLAIPDNEIIVNIQGDEPLIPPVIVRQVADNLAKFNVNMASLAVKIHDAEELFNPNAVKVLTDKDGYVLYFSRSVIPYDRDQFMNLQDVQKVQLSDAYLRHIGIYAYRAGFIKQYVQWAPTQLENLEKLEQLRVLYNGERIHVELAKEVPAVGVDTAEDLEKVRAILAANGSHHHHHH | soluble
MSFVHQKCRNIDTVYLGSNIHRLNVPDNLVKWSQEWSGYNPPAHTDPKVDGAVWADPEIDEKTFQPSWNAIDGKINRVSYVCQYSFDPVTLRPLNPIGRTGLSGRGLLGRWGPNHAADPIVSRTNDNGDLEFVAVQRHDNGEWAIPGGMVDAGEHVSQTLRREFAEEAMHGIVDSENLDELWNNGKELYRGYVDDPRNTDNAWMETVVFNFHDSKGLLKNVALQAGDDAKALRWIAVNSNEPLYASHSHFIDLLKESHSH | not soluble
MSGAGKKIADVAFKASRTIDWDGMAKVLVTDEARREFSNLRRAFDEVNTQLQTKFSQEPEPIDWDYYRKGIGAGIVDKYKEAYDSIEIPKYVDKVTPEYKPKFDALLVELKEAEQKSLKESERLEKEIADVQEISKKLSTMTADEYFEKHPELKKKFDDEIRNDNWGY | soluble
MSGALFLIPAPLGDETVAWLPEGERAKVVHITHFVVEAEKTARKHLKALGVTTPIRELSMSTLNEHTKETDVAALLAPLQAGHDVGLISEAGCPAVADPGAQLVALAHQRDIRVEPLIGPSSILLALMASGANGQCFAFHGYLPVDAAEKSKLVKELEQRSRKHNETQLFIETPYRNNALLAQLRETLAPSTRLAVACDLTLPTQTIVSHRVQDWPQNPPDLHKRPAIFVIHAALEHHHHHH | soluble
MSGFFQRLFGKDNKPAIARGPLGLHLNSGFTLDTLAFRLLEDELLIALPGEEFTVAAVSHIDLGGGSQIFRYYTSGDEFLQINTTGGEDIDDIDDIKLFVYEESYGISKESHWREAINAKAMGAMTLNWQEKRWQRFFNSEEPGNIEPVYMLEKVENQNHAKWEVHNFTMGYQRQVTEDTYEYLLLNGEESFNDLGEPEWLFSRALGVDIPLTSLHIIG | not soluble
MSGGGVIRGPAGNNDCRIYVGNLPPDIRTKDIEDVFYKYGAIRDIDLKNRRGGPPFAFVEFEDPRDAEDAVYGRDGYDYDGYRLRVEFPRSGRGTG | soluble
MSGHKCSYPWDLQDRYAQDKSVVNKMQQKYWETKQAFIKATGKKEDEHVVASDADLDAKLELFHSIQRTCLDLSKAIVLYQKRICFLSQEENELGKFLRSQGFQDKTRAGKMMQATGKALCFSSQQRLALRNPLCRFHQEVETFRHRAISDTWLTVNRMEQCRTEYRGALLWMKDVSQELDPDLYKQMEKFRKVQTQVRLAKKNFDKLKMDVCQKVDLLGASRCNLLSHMLATYQTTLLHFWEKTSHTMAAIHESFKGYQPYEFTTLKVWKLEGPLENLEKSKVLFISQAKSIAESIIIPGLRMLKRELCPQQSLFLSFFLFFYCIRIQYNENLLQSKSAN | soluble
MSGLPQGRPTFGAAQNVSAVVAYDLSAHMLDVVAQAAEARQLKNITTRQGYAESLPFADNAFDIVISRYSAHHWHDVGAALREVNRILKPGGRLIVMDVMSPGHPVRDIWLQTVEALRDTSHVRNYASGEWLTLINEANLIVDNLITDKLPLEFSSWVARMRTPEALVDAIRIYQQSASTEVRTYFALQNDGFFTSDIIMVDAHKAALEHHHHHH | not soluble
